For assay [1], the target named is T1, human Nectin-4 on cells (human, UniProt Q96NY8 32-510).
T1 construct: whole, on cells; also called CHO cells transfected with human Nectin-4 cDNA; Nectin-4 expressed by normal differentiated human keratinocytes (NHEK)
T1 sequence (looked up): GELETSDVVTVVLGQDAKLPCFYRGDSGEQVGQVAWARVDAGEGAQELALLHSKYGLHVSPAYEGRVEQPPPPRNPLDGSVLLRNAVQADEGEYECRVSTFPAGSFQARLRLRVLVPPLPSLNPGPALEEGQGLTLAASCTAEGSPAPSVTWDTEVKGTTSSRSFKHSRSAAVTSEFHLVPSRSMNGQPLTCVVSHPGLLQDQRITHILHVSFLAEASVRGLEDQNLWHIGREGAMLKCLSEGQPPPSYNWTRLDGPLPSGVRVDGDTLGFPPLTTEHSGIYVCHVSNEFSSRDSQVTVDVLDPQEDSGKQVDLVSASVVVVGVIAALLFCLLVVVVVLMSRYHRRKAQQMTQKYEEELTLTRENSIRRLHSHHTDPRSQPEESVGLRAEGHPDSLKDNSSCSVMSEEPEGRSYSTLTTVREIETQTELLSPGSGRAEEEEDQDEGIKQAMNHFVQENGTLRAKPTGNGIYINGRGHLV
Nature of the assay: flow cytometry on normal differentiated human keratinocytes (NHEK), dose range 8 pM - 33 nM (FIG. 15); Ch-5A12.2 is the reference of the comparison. A general note: A flow cytometer gives signals particle by particle.

Assay [2] concerns the target T2, N-terminal Flag-tagged human Nectin-4 on transfected MDA-MB231 cells (human, UniProt Q96NY8 32-510).
T2 construct: whole, on cells; also called PVRL4; Flag-tagged Nectin-4; not shown: N-terminal Flag tag from vector p3XFLR4.C1
T2 sequence (looked up): T1 sequence (looked up)
Nature of the assay: flow cytometry on MDA-MB231 cells transfected with N-terminal Flag-tagged Nectin-4, dose range 0.3 ng/mL - 5 µg/mL (FIG. 1).

B1: Ch-5A12.2 (antibody, V domains shown)
VH: QIQLQQSGAELVKPGASVTLSCKTSGFTFNSMYISWLKQKPGQSLEWIAWIYAGTGGTRFNQKFTGKVQLTVDTSSSTAYMQFSSLTTDDSAIYYCAIRSGFVPMDYWGQGTSVTVSS
VL: SIVMTQTPKFLLVSAGDRVTITCKASQSVSNDVAWYQQKPGQSPKLLIYYASNRYTGVPDRFTGSGYGTDFTFTISTVQAEDLAVYFCQQDYSSPWTFGGGTKLEIK
notes: also called 5A12.2 mAb; Ch-5A12.2 mAb
Regarding B1, the binding result in assay [1] and in assay [2] was “binds” in each case.

These data come from EP4285935A1 (Emergence Therapeutics AG, dated 2023).
